Measurements: publication PMC4756369 (2016)
Positions count from the first letter of the chain named. One block for each binder: values may come before it.

Key:
[1] = target: F-actin (skeletal muscle, phalloidin stabilized) (Oryctolagus cuniculus, UniProt P68135); test: co-sedimentation
[2] = target: F-actin (skeletal muscle) (Oryctolagus cuniculus, UniProt P68135); test: co-sedimentation

Kd [1]: 0.0755 µM
B1: β-III-spectrin ABD 1-284 (protein)
chain: MSSTLSPTDFDSLEIQGQYSDINNRWDLPDSDWDNDSSSARLFERSRIKALADEREAVQKKTFTKWVNSHLARVTCRVGDLYSDLRDGRNLLRLLEVLSGEILPKPTKGRMRIHCLENVDKALQFLKEQKVHLENMGSHDIVDGNHRLTLGLVWTIILRFQIQDISVETEDNKEKKSAKDALLLWCQMKTAGYPNVNVHNFTTSWRDGLAFNAIVHKHRPDLLDFESLKKCNAHYNLQNAFNLAEKELGLTKPLDPEDVNVDQPDEKSIITYVATYYHYFSKMK

Kd [2]: 75.8 µM
B2: β-III-spectrin ABD 1-284 (protein)
chain: B1 chain with P253L
